Key:
[1] = target: GST-SGK with both Thr256 and Ser422 mutated to Ala, O00141
[2] = target: GST-SGK with Lys127 mutated to Ala (kinase dead), O00141
[3] = target: T1, GST-SGK (full length, wild type), O00141
T1 chain: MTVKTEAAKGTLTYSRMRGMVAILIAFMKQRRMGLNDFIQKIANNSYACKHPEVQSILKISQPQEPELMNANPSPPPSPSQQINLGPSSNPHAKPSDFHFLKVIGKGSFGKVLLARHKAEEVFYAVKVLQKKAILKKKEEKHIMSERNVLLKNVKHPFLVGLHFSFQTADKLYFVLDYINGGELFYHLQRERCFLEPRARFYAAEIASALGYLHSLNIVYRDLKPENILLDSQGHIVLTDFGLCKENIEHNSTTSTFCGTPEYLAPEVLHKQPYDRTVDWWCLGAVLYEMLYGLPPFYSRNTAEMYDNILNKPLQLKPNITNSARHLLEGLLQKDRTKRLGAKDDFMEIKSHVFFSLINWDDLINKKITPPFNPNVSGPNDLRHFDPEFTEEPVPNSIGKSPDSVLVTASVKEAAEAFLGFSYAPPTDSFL

GST-SGK2α (wild type) = target: T2, GST-SGK2α (wild type)
T2 chain: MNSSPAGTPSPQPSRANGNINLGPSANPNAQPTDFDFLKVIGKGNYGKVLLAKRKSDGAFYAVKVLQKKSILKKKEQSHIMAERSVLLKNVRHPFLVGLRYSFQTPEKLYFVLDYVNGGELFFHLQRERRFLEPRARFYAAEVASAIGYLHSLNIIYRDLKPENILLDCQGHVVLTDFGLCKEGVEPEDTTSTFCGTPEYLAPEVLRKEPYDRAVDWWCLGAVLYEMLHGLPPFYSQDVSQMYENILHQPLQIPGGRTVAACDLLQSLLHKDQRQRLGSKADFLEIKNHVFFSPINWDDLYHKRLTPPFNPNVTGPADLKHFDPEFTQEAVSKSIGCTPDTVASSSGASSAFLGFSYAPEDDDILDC

GST-SGK3 (wild type) = target: T3, GST-SGK3 (wild type)
T3 chain: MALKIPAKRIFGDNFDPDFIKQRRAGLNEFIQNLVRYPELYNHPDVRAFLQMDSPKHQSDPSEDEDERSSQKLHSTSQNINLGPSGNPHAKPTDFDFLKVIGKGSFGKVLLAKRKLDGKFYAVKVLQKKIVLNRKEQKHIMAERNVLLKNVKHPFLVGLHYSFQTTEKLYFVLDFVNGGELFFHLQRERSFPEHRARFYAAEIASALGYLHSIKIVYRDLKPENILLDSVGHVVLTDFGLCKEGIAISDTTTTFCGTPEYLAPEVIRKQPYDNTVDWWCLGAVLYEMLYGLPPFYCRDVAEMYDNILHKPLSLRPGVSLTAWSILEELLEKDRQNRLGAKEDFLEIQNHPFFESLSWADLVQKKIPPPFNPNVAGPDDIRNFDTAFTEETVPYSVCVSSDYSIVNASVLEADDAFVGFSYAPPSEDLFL

[4] = target: GST-ΔN-SGK(61-431)[S422D], O00141
[5] = target: GST-SGK[T256A/S422D], O00141

Chain of GST-PKBα, P31749 (P31749 whole entry, looked up): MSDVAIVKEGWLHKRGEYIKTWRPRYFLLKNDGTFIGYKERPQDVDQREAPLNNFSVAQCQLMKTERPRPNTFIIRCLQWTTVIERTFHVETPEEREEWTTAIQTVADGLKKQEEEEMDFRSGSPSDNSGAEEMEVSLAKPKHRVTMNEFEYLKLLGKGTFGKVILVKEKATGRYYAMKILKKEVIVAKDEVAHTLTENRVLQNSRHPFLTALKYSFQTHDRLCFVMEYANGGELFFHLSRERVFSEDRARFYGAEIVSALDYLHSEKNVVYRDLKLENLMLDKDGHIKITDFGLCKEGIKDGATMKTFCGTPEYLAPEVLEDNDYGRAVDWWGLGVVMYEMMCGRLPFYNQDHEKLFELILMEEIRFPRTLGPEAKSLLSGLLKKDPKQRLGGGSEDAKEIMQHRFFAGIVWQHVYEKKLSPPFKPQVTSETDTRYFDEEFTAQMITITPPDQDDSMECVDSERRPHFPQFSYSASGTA

B1: GST-PDK1 (protein)
chain: MARTTSQLYDAVPIQSSVVLCSCPSPSMVRTQTESSTPPGIPGGSRQGPAMDGTAAEPRPGAGSLQHAQPPPQPRKKRPEDFKFGKILGEGSFSTVVLARELATSREYAIKILEKRHIIKENKVPYVTRERDVMSRLDHPFFVKLYFTFQDDEKLYFGLSYAKNGELLKYIRKIGSFDETCTRFYTAEIVSALEYLHGKGIIHRDLKPENILLNEDMHIQITDFGTAKVLSPESKQARANSFVGTAQYVSPELLTEKSACKSSDLWALGCIIYQLVAGLPPFRAGNEYLIFQKIIKLEYDFPEKFFPKARDLVEKLLVLDATKRLGCEEMEGYGPLKAHPFFESVTWENLHQQTPPKLTAYLPAMSEDDEDCYGNYDNLLSQFGCMQVSSSSSSHSLSASDTGLPQRSGSNIEQYIHDLDSNSFELDLQFSEDEKRLLLEKQAGGNPWHQFVENNLILKMGPVDKRKGLFARRRQLLLTEGPHLYYVDPVNKVLKGEIPWSQELRPEAKNFKTFFVHTPNRTYYLMDPSGNAHKWCRKIQEVWRQRYQSHPDAAVQ
extent of phosphorylation by PDK1 (GST-SGK[S422A], O00141): The mutation of Ser422 to Ala did not affect the extent of phosphorylation of SGK by PDK1
reduction of the extent of activation by PDK1 (GST-SGK[S422A], O00141): reduced the extent of activation by 60%
reduction of phosphorylation by PDK1 [1]: reduced phosphorylation by 80-90%
phosphorylation by PDK1 [2]: This mutant was phosphorylated at the same rate, and to the same extent, as wild type SGK
increase of SGK activity (Crosstide assay) after phosphorylation by PDK1 [3]: phosphor-ylation was accompanied by a 10-fold increase in the basal activity
maximal stoichiometry of phosphorylation by PDK1 [3]: the maximal stoichiometry of phosphorylation that could be attained was 0.05 mol/mol
stoichiometry of phosphorylation at 1.5 µg/ml PDK1, 30 min [3]: close to 1 mol/mol for SGK1 and SGK3
reduction of phosphorylation by PDK1 (GST-SGK[T256A], O00141): reduced phosphorylation by 80-90%
activation and phosphorylation by PDK1, against wild type SGK2α (GST-SGK2α[S356D]): SGK2[Ser356Asp] was activated (FIG. 17B) and phosphorylated (FIG. 17E) by PDK1 much more effectively than wild type SGK2α
phosphate incorporated, 30 min with 1.5 µg/ml PDK1 and MgATP (GST-SGK2α[S356D]): incorporation of 1.2 and 1.3 mol phosphate per mol protein, respectively
stoichiometry of phosphorylation at 1.5 µg/ml PDK1, 30 min (GST-SGK2α (wild type)): 0.2 mol/mol for SGK2
rate of phosphorylation and activation by PDK1, against wild type (GST-SGK[S422D], O00141): stimulated the rate of phosphorylation (FIG. 5C) and activation (FIG. 5D) by PDK1 at least six-fold
phosphate incorporated, 30 min with 1.5 µg/ml PDK1 and MgATP (GST-SGK3 (wild type)): incorporation of 1.2 and 1.3 mol phosphate per mol protein, respectively
stoichiometry of phosphorylation at 1.5 µg/ml PDK1, 30 min (GST-SGK3 (wild type)): close to 1 mol/mol for SGK1 and SGK3
stoichiometry of phosphorylation by PDK1 [4]: phosphorylated by PDK1 to a stoichiometry of 0.6 mol/mol protein
maximal stoichiometry of phosphorylation by PDK1 (GST-PKBα, P31749): compared to 0.5 mol/mol for PKBα
reduction of phosphorylation by PDK1 [5]: phosphorylation by PDK1 was reduced by 80-90%

Source: patent US7083511
